According to a protein production outcome set (Wang et al. 2014):

Test: label from the status in PepcDB records
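Note: failed if final PepcDB status was selected cloned or expressed and not failed if soluble or beyond.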

Row | Sequence | protein production
1 | MEPTGLMVAAPTASLPEAIGGERNWDYRFTWIRDTAYVIEALSSIGYKYEATEFLYDMMDMITRDNRIRTIYSIDDSNDLEERIIDYEGYRGSRPVRIGNKAVDQLQIDQYGSIVRAIHSMAKAGGIVNSYLWDFVEQVMAKIEYLWKYPDSSIWEFRTEPKQYVYSKVMSWAAFDSAISMAKDLGLSAPIKQWKSIQDEIKKEVLEKGFDTDTNSFVQYYGSKNIDAALLRLPILGFIPANDEKFLGTLSRIEKELMVDGYLFKRYREDDGLKGDEGSFLMLTFWYIEDLILMKRLKKAREVLESVLEKANHLGLYSEEIDEKSGDFLGNFPQALSHLGVIRVAPKLEEALLLEHHHHHH | failed
2 | MSRSTLQPARISRVLPDSIAAEIGFEPGDAIISINGQQPRDLIDYQFLCSDEFLELEVLDAAGRSHQIEIEKDTDEGLGLEFETALFDGLIQCNNRCPFCFIDQQPPGKRESLYYKDDDYRLSFLYGSYLTLTNLSEAEWRRIAQLRLSPLYVSVHATEPDLRRRLLKNERAGLIGEQLHWFRQQQLQIHAQVVVCPDLNDGAQLQRTLMDLAEFHRGDPATVASVAVVPVGLTRFRPTEDELRPVQPADAAATIALVEALQTQFQTELGSRFAWLADEWYLIAGQPLPSASWYEQYPQLENGVGSIRAFISEFERQAATLPSQIEPARRLTWVVGNVVGQAFQPLQARLNAVQGLKVDLVGLASRYWGQTLTVTGLLTGQDLIEVLSDRDLGDGLLLPSLILLHGYRCFLDDLTVAEVEKALHTPIFVAEGITGLLTECLRSPLAATVQDH | failed
3 | MLADHARALDALRSALTPLKAELVAAELESIPVSRLKDVTEGRLRLGAVEAAGFTSVRGVYEAGRYELRQLPGVGEQTADRALAAARQIARAVAETVSVRLDVDHPEPRTTALVVALHRLVEAGPELRRALDAATRLDERLGALLPAARPAGGRLRLALAGRHRREDALAAAAETRDLVAEATARDVPLLLAQASTDLLRDPASDIEAWVDFELRSAEYYSQLAEVSEHRPDAEAGEGFLPSGVAERVHAQPLDDTHRRVSLRGYQSFGARFALAQRRVVLGDEMGLGKTVQAIAALAHLAAEGHSHFLVVCPASVLINWTREIRARSTLRALPVHGADRRDAYEEWRERGGVAVTTFDVLHSLPVPDTEKPGMLVVDEAHYVKNPDTRRAKAVTGWTAHCDRVLFLTGTPMENRVEEFRALVRHLQPALLPAVQGGGVAAGPHAFRKSVAPAYLRRNQQDVLTELPALVQVDEWEELSAADRDAYRKAVAEGNFMAMRRAAYADAEKSAKLGRLRELVAEAADNGLKVVVFSYFREVLATVQQCLGEPVLGPISGGVPAARRQRLVDAFAAIDGHAVLLAQIEAGGTGLNLQAASVVILCEPQVKPTMEHQAVARAHRMGQIRTVQVHRLLATDSVDDRLLRILKNKDRLFDAYARRSDIAEATPDAVDVSDASLARRIVEEEQQRLAARPADQPARTTS | failed
4 | MSLASLPISNFFTFNHQSTLFTKVKNFMGVKHIGDCMKALINGTIYTSFSPVKKVSGLVISNERVLYAGDSSTALRIAELAGGEIIDLKGKFVMPAFFDSHLHLDELGMSLEMVDLRGVKSMEELVERVKKGRGRIIFGFGWDQDELGRWPTREDLDVIDRPVFLYRRCFHVAVMNSKMIDLLNLKPSKDFDESTGIVRERALEESRKIINEKILTVKDYKHYIESAQEHLLSLGVHSVGFMSVGEKALKALFELEREGRLKMNVFAYLSPELLDKLEELNLGKFEGRRLRIWGVKLFVDGSLGARTALLSEPYTDNPTTSGELVMNKDEIVEVIERAKPLGLDVAVHAIGDKAVDVALDAFEEAEFSGRIEHASLVRDDQLERIKELKVRISAQPHFIVSDWWIVNRVGEERAKWAYRLKTLSSITKLGFSTDSPIEPADPWVSIDAAVNRYVVDPGERVSREEALHLYTHGSAQVTLAEDLGKLERGFRAEYIILDRDPLKEMKGIITITTDPNSSSVDKLAAALEHHHHHH | not failed
5 | AQGQRRAPLSVVFTEPQVASVGLSLRQIEDLYADQDAANYVVGQVSFEGQGRSRVMGKNKGLLNVYADRTSGEFLGAEMFGPAAEHIGHLLAWARQQQMTVQAMLTMPFYHPVIEEGLRTALRDAQQKLA | not failed
6 | MNTTQGEYTTTAKWLHWLMATLIALAWLIGFYVSDLPKGPEKAAIMAWHKGLGTAVLALITVRLAWRLLHPPPRLPDTLSPGLQRAAHSAHWTLYGLMIAQPLSGWAVSSANGYPVKLFGLITLPALVEKNEVLAQTFVEIHEFLAWGLALLVVGHVVMAIKHHHVDRNGILHRMLPGRRPTSD | failed
7 | MSIPLLEYKPSSQNQRVPGYEVPNEDTPRIYRIEDAAYDSELKELIWATYRQVFSEHVILKFFRQGNLESQLKNRAISVRDFVRGLAKSEAFKTLVIKSNSNYRLVELALKRLLGRAPYNKDEEIAWSIKIATNGWDGFVDALLDSEEYQSNFGENIVPYQRRRYKDRPFNLVTPRYGNYWRDKLESERYIEGDIKNFLELAKSIEIKTVTFTPVSTANIKIPDTTRNTTPTGIPISVNPSANFPVRLEHHHHHH | failed
8 | MATKAIVVEGGAMRGVFASGVLDAFLERDYKPFDFAIGVSAGASNLIGYLTDYPHRSINVITKLATSKRFFDPTRFLKGGDLIDVKWLFEESNRLYPVDEKKLFEGIPFFAATTNVDTGKADYYRVTRENFHHAIEATTALPIAYKHTPCFSGGCYTDGGVADSIPVREAYRRGARDITVVLSHPLNYSKKPVKNTWLMNKLFAEHPKMAEAMLHRSENYNESLEFIRNPPQGTRVRVIAPPDEFHVQRLSMRQSVLLEGYEMGLQEGRTHITNLSGGYGLSRENCHFCL | failed
9 | MAGSVACRLRPGMAAGGTGMKRYVIFAAIGPLIGGLLLLFATTYQSGYWAHTNLTEVQKFFVVLFKSLQYSYLFGLLPALMMAAIDEIICHIRRVGPGGRVVIVGVIGFLATAFMYGNRGADAGVLQFVLYGLVGLVPATLSSWLANKFCAPVTAETKPASA | failed
10 | MSMVLSFLKKFVENHVMSRHTVAVTLFLTDMAVILGTAIGVGLLRHAFDGYLDPTHYLRLLPFLLLFPAASFAMGLYQSVPLPPPCELKRLSLATCCTYLAIAIFIFFTRGGELYSRLTFALAGLVSLVAVPVARHLVRQRMARHRGWAAPALLFGKPHHVQPLAHILLSSPSLGLEPVAIVSAEHSTCHDFGCLPAFDAETTRQYAAGHPEAYAIVVMESYDEADRAHLVEHLSRLFCSVILLRSSTMSTGNIWLSPIEIGGLPGLMVRQNLLDPRRLTVKRTLDLIATTLALPLILPVMAVIALCIRLETPGPALFTQRRIGRDGYHFDILKFRTMYNDADTRLAECLEQSPELDAEWRRDHKLRCDPRVTRVGAFLRKTSLDELPQLWNVLRGDMSLVGPRPIVDSEVQRYDAAFATYTRVRPGITGLWQVSGRNNLSYPERVQRDMYYISNWSVWFDIWIIARTIPVVLHRDGAY | failed
11 | MKYVPSFKSLKETENGWELQVSWMITVTLRVTMQKSRDEITYLIKKTEGLVKINSYLRFIILPTRDRTVVRLTFFYKGPFERVAKRQTEEFYRRGVEIFKRDLESVQVERKEERGAPSNAKLLLNMRTLLSTQIGKDQLDEVLEQAMLWSVNSQVFVLISDGSRRVELRFRNGDLESGGDLSSLGDKITVIVKGDRAD | failed
12 | MTINNDPMRDAIVDTAVELAAHTSWEAVRLYDIAARLAVSLDEIRLYFREKDELIDAWFDRADSRMLKEAESAGFLDLVASERIHHLIMIWLDALAVQRKVTRQMIMSKLEFGHIHIQIPAVMRVSRTVQWVREAAQRDATFMRRALEESTLTTIYLMTFFFWMRDESENSRHTRQFLKRHLTMAAWLGQKVYGKDPEKSTVPHKQQIPLQFD | not failed
13 | MRMNIRVALPQAQVHWCRGWLQAAHADALMQALLDQVQWEVHRIRMFGRVVDSPRLSSWIGDADASYRYSGTQFAPQPWLEALQPVRTRLQDETGSPFNSVLVNRYRSGADAMGWHSDDEPELGAQPVIASLSLGAARRFAFKHRHDAALKQTLELGHGDLLLMGGDTQRHYKHALPRTVKPVGERINLTFRQIAVRVSQRLEHHHHHH | failed
14 | MTFNKKEKLSITALLIILYLIPAGLEWLEFDSENLHVIAISLPIWLAFFYLGPFWLFYWTQQNKHVARLHVVAQGVLYVLMMFAGANIVSRLHSMAFPQYQFPIKEQGLSAFLWGVFIFSMTHMYLLYQRFVQEQRLRKEAQLADLTSRLNPHFLFNSLNTISALIHSSPDKADDVLHKLSDILRYSVDQQNKWVPLEHELAVCETYLTVEKARFTDNLNISWQIASSVDMRQLKVPPLLLQPLIENVMKHVKRRPIELLISVQAEQGKLIFKVKDNGKGFSEPSLNEQSKAGQGLNIVKQRVDIAGGELSLFNDTSEQGGAVCEITLPIHACV | failed
15 | VMEIEARLEDVRQRIADVAEKSGRKAADVALVAVSKTFDAEAIQPVIDAGQRVFGENRVQEAQGKWPALKEKTSDIELHLIGPLQSNKAADAVALFDVVESIDREKIARALSEECARQGRSLRFYVQVNTGLEPQKAGIDPRETVAFVAFCRDELKLPVEGLMCIPPAEENPGPHFALLAKLAGQCGLEKLSMGMSGDFETAVEFGATSVRVGSAIFGSR | not failed
16 | MIEEERNNYSVFHGLWTLASRELKKWYKAPVILLLSLIQPIFWIGIFGKAMNLGSIFTETTFNIPGLTIPKQVLDQIGLEILKQTFGTTDYFSFLAAGMLSFIVLFTSMQSGMSIVWDRRLGVLDRILTTPVPRGNIIIGKVLSAVIRSLVQATIVLVVAVLLGMTFAPEINPLDFLGVYAALFLMSFGLSSLFLMLALRATSWESQMAIMNLLNLPLLFTSNAFYPVKSMPYWLKPVAYINPLTYSNGVARGMLLGISTNLAIDFLYLGLFAIILSTIGIVLSWKYLSK | failed
17 | MTEPEGYRRFLQLVAHEFFHLWNVKRIRPKALEQFDYEAENYTPSLWFSEGATSYYDLLLPLRAGLYGVDSFLEALGKDLSRYLTTPGRKVQPLAESSFDAWVKLYRRDAYSDNQQMSYYLKGQLVCWLLDLEIRNHQPDLEHHHHHH | failed
18 | MSLAEVNPMSKPLVRWPINPLRTAVIVVDMQKVFCEPTGALYVKSTADIVQPIQKLLQAARAAQVMVIYLRHIVRGDGSDTGRMRDLYPNVDQILARHDPDVEVIEALAPQSDDVIVDKLFYSGFHNTDLDTVLRARDVDTIIVCGTVTNVCCETTIRDGVHREYKVIALSDANAAMDYPDVGFGAVSAADVQRISLTTIAYEFGEVTTTAEVIRRIESAYPHGREGHHHHHH | not failed
19 | MTPIHVVGIGLDGLPGLAAAVQQIIDSATLLVGSDRHLQLIPQGDTPRLSLGNFNASLKAIQTHLDTTANPQVVILTSGDPLFYGLGRWLLEVFAPDQLTFHPHLSAVQLAFSRLKLPWQDAVIYSAHGRDLAGLVPLLQRGVEKIAIYTDGEANIAAISRLYQALHIPVTYRAWVCQALGSAEEAILPWDLAQPVTALPPVHPLNLVVLLRQPQRLPPREQPIVGLGDDQFFTFADRPSLMTKREVRVLVLAELALTSTVEIVWDIGAGTGSVAVEIARLAPQATIYAIEKTAIGFQLIERNRRAFGLANLIPLQGTAPQCLRDLPPPDRVFIGGSGAQLLANLDYCWSHLNAGGRLVLAIATLEHQGQVLHWCQTHQINPQVLQVQLSRSVP | failed
20 | MSLKSLASIENWPVPTAAAGVVRADGTVLGTHGPAAHRFPLASVTKPLAAYAALVAYEEGAIELDEPAGPPGATVRHLLAHTSGLAFDEHRVTAPPGDRRLYSNAGFEQLGDHIAKAAEMPFAEYARQAVLEPLGMTATSLAGSPAKDGVSTVDDLLRFAAEVQAPRLLDPRTVAEAMTVQYPGTKGVLPGYGHQNPNDWGLGFEIRDGKSPHWTGAASSPRTFGHFGQSGTFLWIDPDAALACVSLTDRAFGPWAVEAWPPFTDGVLAEVRG | failed
21 | MSLKGKRIGFGFTGSHCTYEEVMPHLEKLIAEGAEVRPVVSYTVQSTNTRFGEGAEWIKKIEEITGFKAINSIVGAEPLGPKIPLDCMVIAPLTGNSMSKFANAMTDSPVLMAAKATLRNGKPVVLAVSTNDALGLNGVNLMRLMATKNIYFVPFGQDAPEKKPNSMVARMELLEDTVLEALQGKQLQPVVVEKFRYMNLEHHHHHH | not failed
